Source: patent US20060217290A1 (published 2006)

Key:
human IGF-1 receptor = target: T1, human IGF-1 receptor (human, UniProt P08069 31-1367); experiment: competitive binding SPA, displacement of [125I]IGF-1 from human IGF-1R membranes
T1 construct: whole, on cells; Assayed as membrane preparation (P1) of transfected 293EBNA cells, not as intact cells; also called IGF-R; insulin growth factor receptor

human insulin receptor = target: T2, human insulin receptor (human, UniProt P06213 28-1382); experiment: competitive binding SPA, displacement of [125I] insulin from human IR membranes
T2 construct: whole, on cells; Assayed as membrane preparation (P1) of transfected 293EBNA cells, not as intact cells; also called IR; HIR

Relative IGF1-R Affinity (Mean) (human IGF-1 receptor): 1.1 relative to recombinant human insulin
Relative IR Affinity (Mean) (human insulin receptor): 0.21 relative to recombinant human insulin
B1: A0^ArgA21^GlyB29^ArgB31^ArgB32^Lys-human insulin (ligand)
chain 1: RGIVEQCCTSICSLYQLENYCG
chain 2: FVNQHLCGSHLVEALYLVCGERGFFYTPRTRK
notes: Insulin analog; Disulfides A7-B7, A20-B19, A6-A11; also called ArgA0, GlyA21, ArgB29, ArgB31, LysB32-human insulin
